Results reported in patent US20190015483A1 (CSL BEHRING RECOMBINANT FACILITY, published 2019).
Numbering of substitutions follows the chain as printed. Numbers in names are those of the source.

T1: recombinant Factor VIII (CSL627, rVIII-SingleChain) (Homo sapiens (Human), UniProt P00451 20-2351)
T1 construct: also called FVIII
T1 sequence: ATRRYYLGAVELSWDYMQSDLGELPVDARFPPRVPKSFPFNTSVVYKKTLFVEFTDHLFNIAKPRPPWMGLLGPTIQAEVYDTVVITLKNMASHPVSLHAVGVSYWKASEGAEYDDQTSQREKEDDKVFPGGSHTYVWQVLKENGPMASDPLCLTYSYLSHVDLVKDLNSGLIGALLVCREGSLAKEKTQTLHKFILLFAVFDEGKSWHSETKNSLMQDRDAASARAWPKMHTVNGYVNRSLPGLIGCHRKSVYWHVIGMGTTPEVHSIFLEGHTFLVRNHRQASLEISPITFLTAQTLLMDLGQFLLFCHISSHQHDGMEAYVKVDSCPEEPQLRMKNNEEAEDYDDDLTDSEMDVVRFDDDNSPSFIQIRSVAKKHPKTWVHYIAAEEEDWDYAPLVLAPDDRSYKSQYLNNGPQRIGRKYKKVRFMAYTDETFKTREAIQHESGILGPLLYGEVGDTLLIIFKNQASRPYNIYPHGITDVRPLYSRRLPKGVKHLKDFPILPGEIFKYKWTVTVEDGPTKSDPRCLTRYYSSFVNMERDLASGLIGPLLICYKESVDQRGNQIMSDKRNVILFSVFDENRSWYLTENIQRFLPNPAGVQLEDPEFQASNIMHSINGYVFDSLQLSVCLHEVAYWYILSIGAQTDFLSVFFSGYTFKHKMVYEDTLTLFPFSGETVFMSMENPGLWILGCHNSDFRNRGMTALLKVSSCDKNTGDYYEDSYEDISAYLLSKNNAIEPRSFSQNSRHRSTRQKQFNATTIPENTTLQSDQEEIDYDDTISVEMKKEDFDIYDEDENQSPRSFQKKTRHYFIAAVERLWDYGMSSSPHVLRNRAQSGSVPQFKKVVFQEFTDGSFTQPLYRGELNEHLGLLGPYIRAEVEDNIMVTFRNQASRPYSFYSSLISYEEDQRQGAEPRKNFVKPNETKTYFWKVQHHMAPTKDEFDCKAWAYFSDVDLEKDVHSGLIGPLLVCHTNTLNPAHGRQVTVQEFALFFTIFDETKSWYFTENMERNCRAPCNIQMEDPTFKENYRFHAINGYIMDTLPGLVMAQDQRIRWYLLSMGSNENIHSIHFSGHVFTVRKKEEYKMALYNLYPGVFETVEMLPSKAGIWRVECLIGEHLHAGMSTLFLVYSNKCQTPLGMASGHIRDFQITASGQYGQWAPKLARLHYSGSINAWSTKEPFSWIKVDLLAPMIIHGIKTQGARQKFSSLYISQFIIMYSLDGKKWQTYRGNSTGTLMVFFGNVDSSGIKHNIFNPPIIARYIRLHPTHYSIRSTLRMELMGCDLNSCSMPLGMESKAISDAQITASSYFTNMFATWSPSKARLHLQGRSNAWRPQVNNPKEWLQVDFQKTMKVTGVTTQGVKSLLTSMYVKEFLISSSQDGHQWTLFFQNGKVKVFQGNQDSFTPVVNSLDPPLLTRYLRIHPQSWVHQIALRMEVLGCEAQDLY

B1: Hu-vWF[764-1270]-8His S764P-S766A (other)
chain: PLACRPPMVKLVCPADNLRAEGLECTKTCQNYDLECMSMGCVSGCLCPPGMVRHENRCVALERCPCFHQGKEYAPGETVKIGCNTCVCRDRKWNCTDHVCDATCSTIGMAHYLTFDGLKYLFPGECQYVLVQDYCGSNPGTFRILVGNKGCSHPSVKCKKRVTILVEGGEIELFDGEVNVKRPMKDETHFEVVESGRYIILLLGKALSVVWDRHLSISVVLKQTYQEKVCGLCGNFDGIQNNDLTSSNLQVEEDPVDFGNSWKVSSQCADTRKVPLDSSPATCHNNIMKQTMVDSSCRILTSDVFQDCNKLVDPEPYLDVCIYDTCSCESIGDCACFCDTIAAYAHVCAQHGKVVTWRTATLCPQSCEERNLRENGYECEWRYNSCAPACQVTCQHPEPLACPVQCVEGCHAHCPPGKILDELLQTCVDPEDCPVCEVAGRRFASGKKVTLNPSDPEHCQICHCDVVNLTCEACQEPGGLVVPPTDAPVSPTTLYVEDISEPPLHDFHHHHHHHH
B2: Hu-vWF[764-1270]-8His S764P-S766D (other)
chain: B1 chain with A3D
B3: Hu-vWF[764-1270]-8His S764P-S766E (other)
chain: B1 chain with A3E
B4: Hu-vWF[764-1270]-8His S764P-S766F (other)
chain: B1 chain with A3F
B5: Hu-vWF[764-1270]-8His S764P-S766G (other)
chain: B1 chain with A3G
B6: Hu-vWF[764-1270]-8His S764P-S766H (other)
chain: B1 chain with A3H
B7: Hu-vWF[764-1270]-8His S764P-S766I (other)
chain: B1 chain with A3I
B8: Hu-vWF[764-1270]-8His S764P-S766K (other)
chain: B1 chain with A3K
B9: Hu-vWF[764-1270]-8His S764P-S766L (other)
chain: B1 chain with A3L
B10: Hu-vWF[764-1270]-8His S764P-S766M (other)
chain: B1 chain with A3M
B11: Hu-vWF[764-1270]-8His S764P-S766N (other)
chain: B1 chain with A3N
B12: Hu-vWF[764-1270]-8His S764P-S766P (other)
chain: B1 chain with A3P
B13: Hu-vWF[764-1270]-8His S764P-S766Q (other)
chain: B1 chain with A3Q
B14: Hu-vWF[764-1270]-8His S764P-S766R (other)
chain: B1 chain with A3R
B15: Hu-vWF[764-1270]-8His S764P-S766T (other)
chain: B1 chain with A3T
B16: Hu-vWF[764-1270]-8His S764P-S766V (other)
chain: B1 chain with A3V
B17: Hu-vWF[764-1270]-8His S764P-S766W (other)
chain: B1 chain with A3W
B18: Hu-vWF[764-1270]-8His S766Y-K773A (other)
chain: B1 chain with P1S, A3Y, K10A
B19: Hu-vWF[764-1270]-8His S766Y-K773D (other)
chain: B1 chain with P1S, A3Y, K10D
B20: Hu-vWF[764-1270]-8His S766Y-K773E (other)
chain: B1 chain with P1S, A3Y, K10E
B21: Hu-vWF[764-1270]-8His S766Y-K773F (other)
chain: B1 chain with P1S, A3Y, K10F
B22: Hu-vWF[764-1270]-8His S766Y-K773G (other)
chain: B1 chain with P1S, A3Y, K10G
B23: Hu-vWF[764-1270]-8His S766Y-K773H (other)
chain: B1 chain with P1S, A3Y, K10H
B24: Hu-vWF[764-1270]-8His S766Y-K773I (other)
chain: B1 chain with P1S, A3Y, K10I
B25: Hu-vWF[764-1270]-8His S766Y-K773L (other)
chain: B1 chain with P1S, A3Y, K10L
B26: Hu-vWF[764-1270]-8His S766Y-K773M (other)
chain: B1 chain with P1S, A3Y, K10M
B27: Hu-vWF[764-1270]-8His S766Y-K773N (other)
chain: B1 chain with P1S, A3Y, K10N
B28: Hu-vWF[764-1270]-8His S766Y-K773P (other)
chain: B1 chain with P1S, A3Y, K10P
B29: Hu-vWF[764-1270]-8His S766Y-K773Q (other)
chain: B1 chain with P1S, A3Y, K10Q
B30: Hu-vWF[764-1270]-8His S766Y-K773R (other)
chain: B1 chain with P1S, A3Y, K10R
B31: Hu-vWF[764-1270]-8His S766Y-K773S (other)
chain: B1 chain with P1S, A3Y, K10S
B32: Hu-vWF[764-1270]-8His S766Y-K773T (other)
chain: B1 chain with P1S, A3Y, K10T
B33: Hu-vWF[764-1270]-8His S766Y-K773V (other)
chain: B1 chain with P1S, A3Y, K10V
B34: Hu-vWF[764-1270]-8His S766Y-K773W (other)
chain: B1 chain with P1S, A3Y, K10W

Target: T1, recombinant Factor VIII (CSL627, …)
Assay: SPR, anti-His capture
How it was run: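 Anti-His antibody (14,000 RU) captures each mutant from culture supernatant to 40-150 RU. Single-concentration FVIII injection (1 nM) over 5 min, then dissociation tracked for 5 min. Kinetics derive from 1:1 fitting after double referencing.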

Kd	koff	kon	fold decrease in off-rate against wild type vWF	fold increase in affinity against wild type vWF	Binder
0.0123 nM	0.000166 s⁻¹	1.35e+07 M⁻¹ s⁻¹			B1
0.0127 nM	0.00012 s⁻¹	9.41e+06 M⁻¹ s⁻¹			B2
0.016 nM	0.000128 s⁻¹	8.04e+06 M⁻¹ s⁻¹			B3
0.00741 nM	0.0001 s⁻¹	1.35e+07 M⁻¹ s⁻¹			B4
0.0217 nM	0.000388 s⁻¹	1.79e+07 M⁻¹ s⁻¹			B5
0.00676 nM	9.47e-05 s⁻¹	1.4e+07 M⁻¹ s⁻¹			B6
0.00523 nM	5.14e-05 s⁻¹	9.84e+06 M⁻¹ s⁻¹	22 fold	30 fold	B7
0.014 nM	0.000301 s⁻¹	2.15e+07 M⁻¹ s⁻¹			B8
0.00606 nM	8.74e-05 s⁻¹	1.44e+07 M⁻¹ s⁻¹			B9
0.00488 nM	5.76e-05 s⁻¹	1.18e+07 M⁻¹ s⁻¹			B10
0.0104 nM	9.14e-05 s⁻¹	8.82e+06 M⁻¹ s⁻¹			B11
0.0848 nM	0.00217 s⁻¹	2.56e+07 M⁻¹ s⁻¹			B12
0.0102 nM	0.000123 s⁻¹	1.2e+07 M⁻¹ s⁻¹			B13
0.00921 nM	0.000119 s⁻¹	1.29e+07 M⁻¹ s⁻¹			B14
0.0116 nM	0.000105 s⁻¹	9.01e+06 M⁻¹ s⁻¹			B15
0.0956 nM	7.82e-05 s⁻¹	819000 M⁻¹ s⁻¹			B16
0.00727 nM	8e-05 s⁻¹	1.1e+07 M⁻¹ s⁻¹			B17

Kd	koff	kon	fold decrease in off-rate against wild type vWF	fold increase in affinity against wild type vWF	Binder
0.0651 nM	0.00122 s⁻¹	1.88e+07 M⁻¹ s⁻¹			B18
0.343 nM	0.0427 s⁻¹	1.25e+08 M⁻¹ s⁻¹			B19
0.261 nM	0.00481 s⁻¹	1.84e+07 M⁻¹ s⁻¹			B20
0.158 nM	0.00324 s⁻¹	2.05e+07 M⁻¹ s⁻¹			B21
0.0327 nM	0.00197 s⁻¹	6.02e+07 M⁻¹ s⁻¹			B22
0.114 nM	0.0062 s⁻¹	5.47e+07 M⁻¹ s⁻¹			B23
0.071 nM	0.000569 s⁻¹	8.02e+06 M⁻¹ s⁻¹			B24
0.0192 nM	0.000345 s⁻¹	1.79e+07 M⁻¹ s⁻¹			B25
0.0335 nM	0.000659 s⁻¹	1.97e+07 M⁻¹ s⁻¹			B26
0.0984 nM	0.00507 s⁻¹	5.15e+07 M⁻¹ s⁻¹			B27
0.112 nM	0.00243 s⁻¹	2.16e+07 M⁻¹ s⁻¹			B28
0.0393 nM	0.000939 s⁻¹	2.39e+07 M⁻¹ s⁻¹			B29
0.0335 nM	0.000469 s⁻¹	1.4e+07 M⁻¹ s⁻¹			B30
0.0785 nM	0.00138 s⁻¹	1.75e+07 M⁻¹ s⁻¹			B31
0.0224 nM	0.000269 s⁻¹	1.2e+07 M⁻¹ s⁻¹			B32
0.0494 nM	0.000861 s⁻¹	1.74e+07 M⁻¹ s⁻¹			B33
0.134 nM	0.00393 s⁻¹	2.93e+07 M⁻¹ s⁻¹			B34
